This passage reports IC50 and Ki results from US20080119432, “Inhibition Of Metallo-Beta-Lactamase By Rna” (published 2008).

Data set [1] addresses T1, metallo-beta-lactamase (beta-lactamase II, 5/B/6) (Bacillus cereus 5/B/6, UniProt P14488 SEQ:2-228).
T1 sequence: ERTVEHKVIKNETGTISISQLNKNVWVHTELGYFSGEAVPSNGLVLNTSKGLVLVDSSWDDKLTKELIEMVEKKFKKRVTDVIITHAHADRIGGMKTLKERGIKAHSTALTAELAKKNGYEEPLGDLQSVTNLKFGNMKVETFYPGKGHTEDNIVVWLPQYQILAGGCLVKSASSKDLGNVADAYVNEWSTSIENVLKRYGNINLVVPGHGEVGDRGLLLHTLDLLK
Kind of data set: inhibition; 4.3 mM cephalosporin C, 50 mM MOPS pH 7.0, no added Zn. The conditions noted are these: tags: expressed in E. coli TAP56 from pRE2/bla.

Data set [2] concerns the target T1, metallo-beta-lactamase (beta-lactamase …). The experiment in a line: inhibition; noncompetitive; Ki' (enzyme-substrate-inhibitor complex) 15 nM; cephalosporin C substrate, 50 mM MOPS pH 7.0, 30 C. The conditions noted are these: tags: expressed in E. coli TAP56 from pRE2/bla.

By IC50 is commonly meant the point on the concentration scale where inhibition reaches its midpoint. High values mean weaker potency in that assay, low ones greater potency in that assay. For orientation: Ki means a measure of affinity in units of concentration, obtained from inhibition or displacement. A higher Ki goes with lower affinity. Turning to UGGCUGCAGGGUCUGGCCCCCCGUUUGGUG (ssRNA) [30-mer RNA], the concentration for half-maximal inhibition (IC50) in data set [1] was found to be 11 nM. In addition, affinity in data set [2] was put at a Ki of 2 nM.
